# Measured values: US20250066745A1, “MUTANTS AND USE THEREOF” (BGI SHENZHEN, priority 2021, published 2025)
# Numbering of substitutions follows the chain as printed. Names and notes keep the numbering of the source.
# B1: K66R P84L E102D S103T E110A V138E: Gaussia luciferase mutant (protein)
# chain: MGVKVLFALICIAVAEAKPTENNEDFNIVAVASNFATTDLDADRGKLPGKKLPLEVLKEMEANARRAGCTRGCLICLSHIKCTLKMKKFIPGRCHTYEGDKDTAQGGIGAAIVDIPEIPGFKDLEPMEQFIAQVDLCEDCTTGCLKGLANVQCSDLLKKWLPQRCATFASKIQGQVDKIKGAGGD
# modifications: SIGNAL (1)..(17)
# notes: Gaussia luciferase mutant
# B2: P84A E102A S103T E110A V138D: Gaussia luciferase mutant (protein)
# chain: B1 chain with R66K, L84A, D102A, E138D
# modifications: SIGNAL (1)..(17)
# notes: Gaussia luciferase mutant
# B3: P84A E102S S103T A104G E110A L124M V138E: Gaussia luciferase mutant (protein)
# chain: B1 chain with R66K, L84A, D102S, A104G, L124M
# modifications: SIGNAL (1)..(17)
# notes: Gaussia luciferase mutant
# B4: N27D V29E A30G V31I A32V S33K A36I T37D L40T: Gaussia luciferase mutant (protein)
# chain: MGVKVLFALICIAVAEAKPTENNEDFDIEGIVKNFIDTDTDADRGKLPGKKLPLEVLKEMEANARKAGCTRGCLICLSHIKCTPKMKKFIPGRCHTYEGDKESAQGGIGEAIVDIPEIPGFKDLEPMEQFIAQVDLCVDCTTGCLKGLANVQCSDLLKKWLPQRCATFASKIQGQVDKIKGAGGD
# modifications: SIGNAL (1)..(17)
# notes: Gaussia luciferase mutant
# B5: N27D V29S V31L A32V S33G A36N T37D L40R: Gaussia luciferase mutant (protein)
# chain: B4 chain with E29S, G30A, I31L, K33G, I36N, T40R
# modifications: SIGNAL (1)..(17)
# notes: Gaussia luciferase mutant
# B6: A42G Q152K S170S G174N Q175E K178S A182Y G183A: Gaussia luciferase mutant (protein)
# chain: MGVKVLFALICIAVAEAKPTENNEDFNIVAVASNFATTDLDGDRGKLPGKKLPLEVLKEMEANARKAGCTRGCLICLSHIKCTPKMKKFIPGRCHTYEGDKESAQGGIGEAIVDIPEIPGFKDLEPMEQFIAQVDLCVDCTTGCLKGLANVKCSDLLKKWLPQRCATFASKIQNEVDSIKGYAGD
# modifications: SIGNAL (1)..(17)
# notes: Gaussia luciferase mutant
# B7: Q152R S154F Q163D S170T G174N K178T A182Y: Gaussia luciferase mutant (protein)
# chain: B6 chain with G42A, K152R, S154F, Q163D, S170T, E175Q, S178T, A183G
# modifications: SIGNAL (1)..(17)
# notes: Gaussia luciferase mutant
# B8: Q152R Q163S T167G S170D G174K A182Y G183A: Gaussia luciferase mutant (protein)
# chain: B6 chain with G42A, K152R, Q163S, T167G, S170D, N174K, E175Q, S178K
# modifications: SIGNAL (1)..(17)
# notes: Gaussia luciferase mutant
# B9: Q152H Q163S T167G S170V G174N G183A: Gaussia luciferase mutant (protein)
# chain: B6 chain with G42A, K152H, Q163S, T167G, S170V, E175Q, S178K, Y182A
# modifications: SIGNAL (1)..(17)
# notes: Gaussia luciferase mutant
# B10: Q152R Q163T T167S S170N G174K K178S A182Y G183A: Gaussia luciferase mutant (protein)
# chain: B6 chain with G42A, K152R, Q163T, T167S, S170N, N174K, E175Q
# modifications: SIGNAL (1)..(17)
# notes: Gaussia luciferase mutant
# B11: Q152H Q163T T167S S170D G174K K178N A182Y G183N: Gaussia luciferase mutant (protein)
# chain: B6 chain with G42A, K152H, Q163T, T167S, S170D, N174K, E175Q, S178N, A183N
# modifications: SIGNAL (1)..(17)
# notes: Gaussia luciferase mutant
# B12: Q152R T167G S170N K178S A182L G183N: Gaussia luciferase mutant (protein)
# chain: B6 chain with G42A, K152R, T167G, S170N, N174G, E175Q, Y182L, A183N
# modifications: SIGNAL (1)..(17)
# notes: Gaussia luciferase mutant
# B13: Q163S T167S S170T G174N K178T: Gaussia luciferase mutant (protein)
# chain: B6 chain with G42A, K152Q, Q163S, T167S, S170T, E175Q, S178T, Y182A, A183G
# modifications: SIGNAL (1)..(17)
# notes: Gaussia luciferase mutant
# B14: Q152K Q163D S170N G174K Q175E K178T A182L G183A: Gaussia luciferase mutant (protein)
# chain: B6 chain with G42A, Q163D, S170N, N174K, S178T, Y182L
# modifications: SIGNAL (1)..(17)
# notes: Gaussia luciferase mutant
# B15: Q152H Q163D T167S S170N A182L G183A: Gaussia luciferase mutant (protein)
# chain: B6 chain with G42A, K152H, Q163D, T167S, S170N, N174G, E175Q, S178K, Y182L
# modifications: SIGNAL (1)..(17)
# notes: Gaussia luciferase mutant
# B16: Q152R Q163S T167G S170V G174K Q175E K178S A182Y G183A: Gaussia luciferase mutant (protein)
# chain: B6 chain with G42A, K152R, Q163S, T167G, S170V, N174K
# modifications: SIGNAL (1)..(17)
# notes: Gaussia luciferase mutant
# Assay: Luminescence activity assay of purified Gaussia luciferase mutants on coelenterazine
# Assay type: biochemical
# Parameters: key to Activity of mutant relative to wild-type Gaussia luciferase without the signal peptide: ratio of mutant luminescence intensity to wild-type Gaussia luciferase
# Conditions: Substrate CTZ (Table 16)
# Procedure: (§1) In this Example, the protein concentration was determined with a BCA quantitative kit (Thermo Scientific™ Pierce™ BCA Protein Assay Kit) accurately. The purified luciferase obtained in Example 5 was diluted with diluent (50 mM Tris-HCl, pH 8.0, 100 mM NaCl, 0.1% (v/v) Tween-20) to 1 μg/mL. The diluted luciferase, taken for 10 μL, was moved into a black 96-well plate, then added with 90 μL of the substrates coelenterazine, fluoro-coelenterazine or coelenterazine derivative ZS2 (purchased from Biolab) which was diluted into 100 μM with the same diluent, and the luminescence intensity of the plate was read with a self-luminescence module of a microplate reader. The mutation site of the mutant, the measured luminescence intensity, the ratio of luminescence intensities of the advantageous mutants to the wild-type Gaussia luciferase without the signal peptide having the sequence shown in SEQ ID NO: 3 are shown in Table 15. The results of catalytic activity assay of the advantageous mutants relative to the wild-type Gaussia luciferase without the signal peptide having the sequence shown in SEQ ID NO: 3 on substrate coelenterazine are shown in FIG. 6. […] The results of catalytic activity assay of the advantageous mutants relative to the wild-type Gaussia luciferase without the signal peptide having the sequence shown in SEQ ID NO: 3 on substrate fluoro-coelenterazine are shown in FIG. 7.
# (§2) The new mutant library constructed in Example 7 was screened and tested for substrate specificity. Expression and purification schemes were the same as that in Example 5, and the activity assay scheme was the same as that in Example 6. The respective catalytic activities of combinatorial mutants on coelenterazine, fluoro-coelenterazine or coelenterazine derivative ZS2, and coelenterazine derivative ZS26 (purchased from BIOLAB) were assayed, and comparisons among the substrate specificities of the combinatorial mutants were based on the ratios of catalytic activities on two corresponding substrates.
row,Activity of mutant relative to wild-type Gaussia luciferase without the signal peptide,Molecule
1,0.626,B1
2,0.174,B2
3,0.375,B3
4,0.779,B4
5,0.981,B5
6,0.736,B6
7,0.020,B7
8,1.050,B8
9,0.006,B9
10,1.030,B10
11,0.079,B11
12,0.807,B12
13,0.706,B13
14,1.079,B14
15,1.197,B15
16,0.992,B16

# Assay: Luminescence activity assay of purified Gaussia luciferase mutants on coelenterazine derivative ZS2
# Assay type: biochemical
# Parameters: key to Activity of mutant relative to wild-type Gaussia luciferase without the signal peptide: ratio of mutant luminescence intensity to wild-type Gaussia luciferase
# Conditions: Substrate ZS2 (Table 16)
# Procedure: as §1, §2
row,Activity of mutant relative to wild-type Gaussia luciferase without the signal peptide,Molecule
1,3.079,B1
2,4.252,B2
3,4.457,B3
4,1.379,B4
5,0.146,B5
6,1.751,B6
7,0.003,B7
8,1.402,B8
9,0.064,B9
10,0.413,B10
11,0.089,B11
12,0.737,B12
13,2.603,B13
14,1.183,B14
15,0.698,B15
16,1.011,B16
